This data set concerns the molecule itself. The experiment in a line: AUC.

By stoichiometry N is commonly meant the number of molecules, sites or subunits per partner or assembly.

B1: nontagged Atg38 (recombinant) (natural protein, budding yeast, UniProt Q05789 1-226, looked up)
chain: MSTLAEVYTIIEDAEQECRKGDFTNAKAKYQEAIEVLGPQNENLSQNKLSSDVTQAIDLLKQDITAKIQELELLIEKQSSEENNIGMVNNNMLIGSVILNNKSPINGISNARNWDNPAYQDTLSPINDPLLMSILNRLQFNLNNDIQLKTEGGKNSKNSEMKINLRLEQFKKELVLYEQKKFKEYGMKIDEITKENKKLANEIGRLRERWDSLVESAKQRRDKQKN
As to B1, the “stoichiometry N” value was 2.

The values above are taken from publication PMC3812978 (The Journal of Cell Biology, 2013).
